# Test results published in IntAct's records for PubMed 31515488.
# B1: Notch homolog 2 N-terminal-like protein A (Homo sapiens), Q7Z3S9 (parent)
# chain: MCVTYHNGTGYCKCPEGFLGEYCQHRDPCEKNRCQNGGTCVAQAMLGKATCRCASGFTGEDCQYSTSHPCFVSRPCLNGGTCHMLSRDTYECTCQVGFTGKECQWTDACLSHPCANGSTCTTVANQFSCKCLTGFTGQKCETDVNECDIPGHCQHGGTCLNLPGSYQCQCLQGFTGQYCDSLYVPCAPSPCVNGGTCRQTGDFTFECNCLPETVRRGTELWERDREVWNGKEHDEN
# partner: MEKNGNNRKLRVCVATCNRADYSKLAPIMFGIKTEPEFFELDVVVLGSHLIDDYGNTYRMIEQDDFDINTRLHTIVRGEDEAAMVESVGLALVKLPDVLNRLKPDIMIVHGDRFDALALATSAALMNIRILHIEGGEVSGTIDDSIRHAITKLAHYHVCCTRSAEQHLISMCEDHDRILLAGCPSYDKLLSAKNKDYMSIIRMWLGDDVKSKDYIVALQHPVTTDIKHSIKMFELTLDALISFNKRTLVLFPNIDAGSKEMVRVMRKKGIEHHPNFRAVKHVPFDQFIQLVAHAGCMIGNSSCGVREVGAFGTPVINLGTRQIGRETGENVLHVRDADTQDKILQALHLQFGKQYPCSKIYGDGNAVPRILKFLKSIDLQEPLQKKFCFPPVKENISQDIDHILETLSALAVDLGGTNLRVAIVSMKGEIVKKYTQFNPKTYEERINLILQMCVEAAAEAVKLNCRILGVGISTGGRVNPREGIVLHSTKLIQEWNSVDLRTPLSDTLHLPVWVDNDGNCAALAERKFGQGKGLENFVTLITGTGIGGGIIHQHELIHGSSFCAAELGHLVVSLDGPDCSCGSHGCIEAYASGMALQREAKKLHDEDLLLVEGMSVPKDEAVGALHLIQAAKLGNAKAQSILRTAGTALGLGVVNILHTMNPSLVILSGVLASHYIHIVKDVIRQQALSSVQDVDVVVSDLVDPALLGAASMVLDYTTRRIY
# B2: Four and a half LIM domains protein 2 (Homo sapiens), Q14192 (parent)
# chain: MTERFDCHHCNESLFGKKYILREESPYCVVCFETLFANTCEECGKPIGCDCKDLSYKDRHWHEACFHCSQCRNSLVDKPFAAKEDQLLCTDCYSNEYSSKCQECKKTIMPGTRKMEYKGSSWHETCFICHRCQQPIGTKSFIPKDNQNFCVPCYEKQHAMQCVQCKKPITTGGVTYREQPWHKECFVCTACRKQLSGQRFTARDDFAYCLNCFCDLYAKKCAGCTNPISGLGGTKYISFEERQWHNDCFNCKKCSLSLVGRGFLTERDDILCPDCGKDI
# partner: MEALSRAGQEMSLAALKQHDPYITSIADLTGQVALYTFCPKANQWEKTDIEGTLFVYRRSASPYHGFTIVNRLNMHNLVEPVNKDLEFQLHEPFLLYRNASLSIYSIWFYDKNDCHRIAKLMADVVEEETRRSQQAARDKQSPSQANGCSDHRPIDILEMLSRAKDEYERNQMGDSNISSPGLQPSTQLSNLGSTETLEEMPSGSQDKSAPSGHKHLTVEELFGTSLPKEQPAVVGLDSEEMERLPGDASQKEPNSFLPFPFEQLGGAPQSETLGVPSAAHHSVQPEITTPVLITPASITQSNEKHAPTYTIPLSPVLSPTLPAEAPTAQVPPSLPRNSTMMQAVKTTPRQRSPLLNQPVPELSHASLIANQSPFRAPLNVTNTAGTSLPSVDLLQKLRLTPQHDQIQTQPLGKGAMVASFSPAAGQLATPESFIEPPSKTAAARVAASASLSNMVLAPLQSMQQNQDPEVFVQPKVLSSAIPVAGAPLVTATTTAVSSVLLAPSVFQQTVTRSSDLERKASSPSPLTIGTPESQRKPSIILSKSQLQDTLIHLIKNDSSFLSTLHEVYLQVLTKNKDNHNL
# B3: BRCA1-A complex subunit RAP80 (Homo sapiens), Q96RL1-2 (parent)
# chain: MPRRKKKVKEVSESRNLEKKDVETTSSVSVKRKRRLEDAFIVISDSDGEEPKEENGLQKTKTKQSNRAKCLAKRKIAQMTEEEQFALALKMSEQEAREVNSQEEEEEELLRKAIAESLNSCRPSDASATRSRPLATGPSSQSHQEKTTDSGLTEGIWQLVPPSLFKGSHISQGNEAEEREEPWDHTEKTEEEPVSGSSGSWDQSSQPVFENVNVKSFDRCTGHSAEHTQCGKPQSSQGIVEETSEEGNSVPASQSVAALTSKRSLVLMPESSAEEITVCPETQLSSSETFDLEREVSPGSRDILDGVRIIMADKEVGNKEDAEKEVAISTFSSSNQVSCPLCDQCFPPTKIERHAMYCNGLMEEDTVLTRRQKEAKTKSDSGTAAQTSLDIDKNEKCYLCKSLVPFREYQCHVDSCLQLAKADQGDGPEGSGRACSTVEGKWQQRLKNPKEKGHSEGRLLSFLEQSEHKTSDADIKSSETGAFRVPSPGMEEAGCSREMQSSFTRRDLNESPVKSFVSISEATDCLVDFKKQVTVQPGSRTRTKAGRGRRRKF
# partner: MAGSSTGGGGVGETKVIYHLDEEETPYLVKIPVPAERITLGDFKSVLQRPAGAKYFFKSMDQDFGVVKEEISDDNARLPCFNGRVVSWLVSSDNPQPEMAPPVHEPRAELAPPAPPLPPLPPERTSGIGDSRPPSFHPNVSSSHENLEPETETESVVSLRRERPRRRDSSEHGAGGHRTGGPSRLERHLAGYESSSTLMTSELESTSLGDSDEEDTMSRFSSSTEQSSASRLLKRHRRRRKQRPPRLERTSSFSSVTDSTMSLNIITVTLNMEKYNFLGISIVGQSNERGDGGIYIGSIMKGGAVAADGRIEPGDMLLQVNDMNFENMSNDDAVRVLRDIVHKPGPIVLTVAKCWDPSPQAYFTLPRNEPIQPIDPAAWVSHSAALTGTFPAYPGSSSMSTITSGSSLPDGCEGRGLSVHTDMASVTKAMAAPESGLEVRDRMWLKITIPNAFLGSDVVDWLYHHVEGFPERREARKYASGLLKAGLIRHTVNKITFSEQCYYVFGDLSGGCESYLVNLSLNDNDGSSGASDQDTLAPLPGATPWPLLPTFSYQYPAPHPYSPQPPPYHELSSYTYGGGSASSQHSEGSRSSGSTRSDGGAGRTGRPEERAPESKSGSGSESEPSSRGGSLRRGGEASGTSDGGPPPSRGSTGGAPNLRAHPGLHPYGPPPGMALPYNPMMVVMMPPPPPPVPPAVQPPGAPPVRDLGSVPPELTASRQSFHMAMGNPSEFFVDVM
# Variants of: B1
# Conditions: with glcne_human GNE
row,effect of a mutation on the interaction,Variant
1,with no effect,A115T
2,with no effect,R74Q

# Variants of: B2
# Conditions: with dcp1a_human DCP1A
row,effect of a mutation on the interaction,Variant
1,with no effect,N95K
2,with no effect,A37S

# Variants of: B3
# Conditions: with dvl2_human DVL2, O14641
row,effect of a mutation on the interaction,Variant
1,with no effect,G48E
